Measured values from paper PMC4942675 (Molecular Cell, 2016).
Positions count from the first letter of the chain named. Read-outs that look alike come from different tables or passages of the source.

How the values were obtained:
[1] = target: T1, Rrp43 (subunit of Exo10 in the crystal structure) (S. cerevisiae, UniProt P25359); test: crystal structure
T1 sequence: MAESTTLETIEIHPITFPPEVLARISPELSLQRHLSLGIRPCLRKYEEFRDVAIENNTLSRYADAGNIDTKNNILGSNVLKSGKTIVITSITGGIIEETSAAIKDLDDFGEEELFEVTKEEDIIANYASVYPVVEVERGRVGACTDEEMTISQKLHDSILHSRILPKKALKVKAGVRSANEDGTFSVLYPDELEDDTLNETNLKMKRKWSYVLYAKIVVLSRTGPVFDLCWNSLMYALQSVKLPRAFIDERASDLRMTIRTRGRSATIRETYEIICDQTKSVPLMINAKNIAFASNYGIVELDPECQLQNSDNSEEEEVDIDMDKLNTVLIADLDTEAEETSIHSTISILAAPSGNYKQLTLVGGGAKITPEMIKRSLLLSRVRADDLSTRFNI

[2] = target: T2, S. cerevisiae Exo9 (nine-subunit exosome core, no Rrp44 subunit) (S. cerevisiae, UniProt P46948;Q05636;P53256;P25359;P48240;Q12277;P38792;Q08285;P53859); test: MST
[3] = target: T2, S. cerevisiae Exo9 (nine-subunit …); test: pull-down
[4] = target: T2, S. cerevisiae Exo9 (nine-subunit …); test: pull-down; remark: listed apart in the source

B1: Mtr3 (subunit of Exo10 in the crystal structure) (natural protein)
chain: MNVQDRRRLLGPAAAKPMAFSNTTTHVPEKKSTDLTPKGNESEQELSLHTGFIENCNGSALVEARSLGHQTSLITAVYGPRSIRGSFTSQGTISIQLKNGLLEKYNTNELKEVSSFLMGIFNSVVNLSRYPKSGIDIFVYLTYDKDLTNNPQDDDSQSKMMSSQISSLIPHCITSITLALADAGIELVDMAGAGEANGTVVSFIKNGEEIVGFWKDDGDDEDLLECLDRCKEQYNRYRDLMISCLMNQET
Question: Does B1 bind [1]?
Answer: binds

B2: GFP-Ski7_(exomut-1) (Trp125Asp, Ile128Asp) (domain or fragment)
chain: DDKLNLEESDKADKEMNHYCFLKNDPCINQTDDFAFTNFIIKDKKNSLSTSIPLSSQNSSFLSLKKHNNELLGIFVPCNLPKTTRKVAIENFNRPSPDDIIQSAQLNAFN
Question: Which Kd [2] does the source give for B2 here?
Answer: 50 nM

B3: GFP-tagged Ski7exo (domain or fragment)
chain: B2 chain with D10W, D13I
Question: B3 was tested. Which Kd [2] did it give?
Answer: ~5 nM

B4: GFP-Ski7_(exomut-2) (Phe149Asp, Phe151Asp, Phe154Asp) (domain or fragment)
chain: B2 chain with D10W, D13I, F34D, F36D, F39D
Question: Does B4 bind [3]?
Answer: binds

B5: GFP-Ski7_(exomut-3) (Ile189Asp, Phe190Asp) (domain or fragment)
chain: B2 chain with D10W, D13I, I74D, F75D
Question: Does B5 bind [3]?
Answer: binds

B6: GFP-tagged Rrp6exo (GFP-Sumo-Rrp6C, Rrp6 residues 518-693) (domain or fragment)
chain: EATPIPSSETKADGILLETISVPQIRDVMERFSVLCNSNISKSRAKPVTNSSILLGKILPREEHDIAYSKDGLPNKVKTEDIRIRAQNFKSALANLEDIIFEIEKPLVVPVKLEEIKTVDPASAPNHSPEIDNLDDLVVLKKKNIQKKQPAKEKGVTEKDAVDYSKIPNILSNKPG
Question: For B6, which Kd [2] is on record?
Answer: ~10 nM

B7: Ski7 residues 116-235 (Exo9-interacting domain) (domain or fragment)
chain: DDKLNLEESWKAIKEMNHYCFLKNDPCINQTDDFAFTNFIIKDKKNSLSTSIPLSSQNSSFLSLKKHNNELLGIFVPCNLPKTTRKVAIENFNRPSPDDIIQSAQLNAFNEKLENLNIKS
Question: Does B7 bind [4]?
Answer: binds
